Results on one molecule are retold here after patent US20230057071A1 (NOVARTIS AG, priority 2019, published 2023).

This assay concerns the target T1, TIM-3/Galectin-9 interaction (Homo sapiens, UniProt Q8TDQ0).
T1 construct: purchased R&D Systems
In words: Plate-based (MesoScale) competition assay of the TIM-3/Galectin-9 interaction. The format is binding. As to conditions: serial dilutions of antibody; labeled Galectin-9 100 nM. The method, then:
FIG. 1 is a graph depicting the impact of MBG453 on the interaction between TIM3 and galectin-9. Competition was assessed as a measure of the ability of the antibody to block Gal9-SULFOTag signal to TIM-3 receptor, which is shown on the Y-axis. Concentration of the antibody is shown on the X-axis.
TIM-3 fusion protein (R&D Systems) was coated on a standard MesoScale 96 well plate (Meso Scale Discovery) at 2 μg/ml in PBS (Phosphate Buffered Saline) and incubated for six hours at room temperature. The plate was washed three times with PBST (PBS buffer containing 0.05% Tween-20) and blocked with PBS containing 5% Probumin (Millipore) overnight at 4° C. After incubation, the plate was washed three times with PBST and unlabeled antibody (F38-2E2 (BioLegend); MBG453; MBG453 F(ab′)2; MBG453 F(ab); or control recombinant human Galectin-9 protein) diluted in Assay Diluent (2% Probumin, 0.1% Tween-20, 0.1% Triton X-100 (Sigma) with 10% StabilGuard (SurModics)), was added in serial dilutions to the plate and incubated for one hour on an orbital shaker at room temperature. […] The plate was again washed three times with PBST, and Read Buffer T (1×) was added to the plate. The plate was read on MA600 Imager, and competition was assessed as a measure of the ability of the antibody to block Gal9-SULFOTag signal to TIM-3 receptor.

B1: control Galectin-9 protein: unlabeled control recombinant human Galectin-9 protein (protein)
chain: AFSGSQAPYLSPAVPFSGTIQGGLQDGLQITVNGTVLSSSGTRFAVNFQTGFSGNDIAFHFNPRFEDGGYVVCNTRQNGSWGPEERKTHMPFQKGMPFDLCFLVQSSDFKVMVNGILFVQYFHRVPFHRVDTISVNGSVQLSYISFQPPGVWPANPAPITQTVIHTVQSAPGQMFSTPAIPPMMYPHPAYPMPFITTILGGLYPSKSILLSGTVLPSAQRFHINLCSGNHIAFHLNPRFDENAVVRNTQIDNSWGSEERSLPRKMPFVRGQSFSVWILCEAHCLKVAVDGQHLFEYYHRLRNLPTINRLEVGGDIQLTHVQT
As to B1, the “block of the interaction between TIM-3 and Galectin-9 (Gal9-SULFOTag signal to TIM-3)” value is given as “did not”.
